PMC3766443 (Nature structural & molecular biology, 2013)

Biological target: Arp2 subunit of Bos taurus Arp2/3 complex (Bos taurus, UniProt A7MB62 1-394)
Assay: crystal structure

B1: Mus musculus GMFγ (glial maturation factor gamma), GST tag removed (natural protein)
chain: MSDSLVVCEVDPELKETLRKFRFRKETNNAAIIMKVDKDRQMVVLEDELQNISPEELKLELPERQPRFVVYSYKYVHDDGRVSYPLCFIFSSPVGCKPEQQMMYAGSKNRLVQTAELTKVFEIRTTDDLTETWLKEKLAFFR
B1: binds.
